According to patent US20160244728A1, “CULTURE METHOD FOR PLURIPOTENT STEM CELLS AND KIT AND MEDIUM FOR CULTURE OF PLURIPOTENT STEM CELLS USED THEREIN” (FUJIFILM Corporation, priority 2013, published 2016):

B1: RCP-15: recombinant polypeptide, human vitronectin positions 56-459 (protein)
chain: GPLGYTVYDDGEEKNNATVHEQVGGPSLTSDLQAQSKGNPEQTPVLKPEEEAPAPEVGASKPEGIDSRPETLHPGRPQPPAEEELCSGKPFDAFTDLKNGSLFAFRGQYCYELDEKAVRPGYPKLIRDVWGIEGPIDAAFTRINCQGKTYLFKGSQYWRFEDGVLDPDYPRNISDGFDGIPDNVDAALALPAHSYSGRERVYFFKGKQYWEYQFQHQPSQEECEGSSLSAVFEHFAMMQRDSWEDIFELLFWGRTSAGTRQPQFISRDWHGVPGQVDAAMAGRIYISGMAPRPSLAKKQRFRHRNRKGYRSQRGHSRGRNQNSRRPSRATWLSLFSSEESNLGANNYDDYRMDWLVPATCEPIQSVFFFSGDKYYRVNLRTRRVDTVDPPYPRSIAQYWLGCPAPGHL
modifications: Synthetic Peptide RCP-15
B2: RCP-13: recombinant polypeptide, human vitronectin positions 1-55, 56-129 (protein)
chain: GPLGDQESCKGRCTEGFNVDKKCQCDELCSYYQSCCTDYTAECKPQVTRGDVFTMPEDEYTVYDDGEEKNNATVHEQVGGPSLTSDLQAQSKGNPEQTPVLKPEEEAPAPEVGASKPEGIDSRPETLHPGRPQP
modifications: Synthetic Peptide RCP-13
B3: RCP-11: recombinant polypeptide corresponding to the sequence of natural human vitronectin, positions 1-459 (protein)
chain: GPLGDQESCKGRCTEGFNVDKKCQCDELCSYYQSCCTDYTAECKPQVTRGDVFTMPEDEYTVYDDGEEKNNATVHEQVGGPSLTSDLQAQSKGNPEQTPVLKPEEEAPAPEVGASKPEGIDSRPETLHPGRPQPPAEEELCSGKPFDAFTDLKNGSLFAFRGQYCYELDEKAVRPGYPKLIRDVWGIEGPIDAAFTRINCQGKTYLFKGSQYWRFEDGVLDPDYPRNISDGFDGIPDNVDAALALPAHSYSGRERVYFFKGKQYWEYQFQHQPSQEECEGSSLSAVFEHFAMMQRDSWEDIFELLFWGRTSAGTRQPQFISRDWHGVPGQVDAAMAGRIYISGMAPRPSLAKKQRFRHRNRKGYRSQRGHSRGRNQNSRRPSRATWLSLFSSEESNLGANNYDDYRMDWLVPATCEPIQSVFFFSGDKYYRVNLRTRRVDTVDPPYPRSIAQYWLGCPAPGHL
modifications: Synthetic Peptide CRP-11
B4: RCP-1: recombinant polypeptide, human vitronectin positions 1-55 and 269-459, methionine on the N-terminal (protein)
chain: MDQESCKGRCTEGFNVDKKCQCDELCSYYQSCCTDYTAECKPQVTRGDVFTMPEDEPSQEECEGSSLSAVFEHFAMMQRDSWEDIFELLFWGRTSAGTRQPQFISRDWHGVPGQVDAAMAGRIYISGMAPRPSLAKKQRFRHRNRKGYRSQRGHSRGRNQNSRRPSRATWLSLFSSEESNLGANNYDDYRMDWLVPATCEPIQSVFFFSGDKYYRVNLRTRRVDTVDPPYPRSIAQYWLGCPAPGHL
modifications: Synthetic Peptide RCP-1
B5: RCP-16: recombinant polypeptide, human vitronectin positions 269-459 (protein)
chain: GPLGPSQEECEGSSLSAVFEHFAMMQRDSWEDIFELLFWGRTSAGTRQPQFISRDWHGVPGQVDAAMAGRIYISGMAPRPSLAKKQRFRHRNRKGYRSQRGHSRGRNQNSRRPSRATWLSLFSSEESNLGANNYDDYRMDWLVPATCEPIQSVFFFSGDKYYRVNLRTRRVDTVDPPYPRSIAQYWLGCPAPGHL
modifications: Synthetic Peptide RCP-16

Legend:
[1] = Evaluation of adsorbability with respect to culture dish; type: physicochemical; details: FIG. 1; for adsorbability with respect to the plate (in words): 0 to 200 pmol/cm^2 added, 2 hours at 37° C., compared with RCP-11
Experimental: Each of the polypeptides obtained as above was diluted with a predetermined buffer such that they could be added to wells at a predetermined final concentration of 0 pmol/cm^2 to 200 pmol/cm^2. Thereafter, each of the polypeptides was added in an amount of 64 μL to a plasma-treated 96-well plate made of polystyrene (Tissue Culture-Treated, Falcon). Each of the polypeptides was allowed to adsorb onto the plate by being incubated for 2 hours at 37° C., and then the wells were washed twice with PBS, thereby obtaining surfaces coated with each of the polypeptides of RCP-1 to RCP-16.
Among the surfaces coated with each of the polypeptides obtained as above, the surfaces coated with RCP-1 and RCP-11 to RCP-16 were applied with 64 μL of a borate buffer and 64 μL of 1 N NaOH, followed by incubation for 24 hours at 80° C. and 100% humidity. After the resultant was air-cooled, 75 μL of a borate buffer was added to each well, and 50 μL of a reaction solution obtained by mixing OPA (o-phthalaldehyde: Wako Pure Chemical Industries, Ltd./methanol solution (160 mg/ml)) with N-acetyl-L-cysteine (NAC: Wako Pure Chemical Industries, Ltd.)/borate buffer solution (2 mg/ml) at a ratio of 1:100 (mass ratio) was further added thereto. After incubation for 30 minutes at 40° C., the fluorescence intensity thereof was measured by using an Envision Multilabel Counter (PerkinElmer Inc.) (excitation 355 nm/fluorescence 486 nm). A calibration curve was separately prepared from each of the polypeptide solutions so as to calculate the amount of the polypeptide adsorbed. In FIG. 1, a black rhombus indicates RCP-1, a black square indicates RCP-11, a black triangle indicates RCP-12, a black circle indicates RCP-13, a white rhombus indicates RCP-14, a white square indicates RCP-15, and a white triangle indicates RCP-16.

[2] = tested on: human iPS cells; test: Growth evaluation, growth curves over 8 days; type: cell-based; details: FIG. 2; 250 cells/well
Experimental: The iPS cells collected in the same manner as in <Cell adhesiveness evaluation 1> were seeded into a 96-well plate, onto which RCP-1, RCP-11, and natural human vitronectin were adsorbed, at a ratio of 250 cells/well and cultured for 8 days in a 5% CO2 incubator at 37° C. The number of adhesive cells after different days of culture was measured in the same manner as in <Cell adhesiveness evaluation 1>, thereby obtaining growth curves. […] In FIG. 2, a black rhombus indicates a case using RCP-1, and a black square indicates a case using RCP-11.

[3] = tested on: human iPS cells; test: Evaluation of maintenance of undifferentiated state; type: cell-based; details: for form of the iPS cell colony: FIGS. 3A to 3E, TeSR2, subcultured every six days; for maintenance of the undifferentiated state (NANOG staining): FIGS. 4A to 4E, after culture for 1 month
Experimental: iPS cells collected in the same manner as in <Cell adhesiveness evaluation 1> were suspended in TeSR2. The iPS cells were seeded into 6-well plate (Tissue culture-treated, Falcon), onto which each of the samples 1, 2, 5, 6, and 7 used in <Cell adhesiveness evaluation 1> was adsorbed in the same manner as in <Cell adhesiveness evaluation 1>, and cultured in a CO2 incubator at 37° C. Except for the day after the seeding, the medium was replaced every day. In the same method as described above, the cells were subcultured every six days. FIGS. 3A to 3E show forms of the iPS cells cultured on each of the samples.
After being cultured for 1 month under the conditions described above, the cells were immobilized using 4% paraformaldehyde and treated with 1% Triton-X/PBS so as to enhance the membrane permeability. After the cells were subjected to a blocking treatment using an Image IT Signal Enhancer (Invitrogen), an anti-human NANOG antibody (AF 1997, R&D Systems, Inc.), an Alexa Fluor 555 binding rabbit anti-goat IgG antibody (Invitrogen), and DAPI (Dojindo Molecular Technologies, Inc.) were added thereto for labeling, and the cells were imaged using a fluorescence microscope. FIGS. 4A to 4E show the fluorescence microscopic images.
FIGS. 3A and 4A show the iPS cells cultured on RCP-1; FIGS. 3B and 4B show the iPS cells cultured on RCP-11; FIGS. 3C and 4C show the iPS cells cultured on natural human vitronectin; FIGS. 3D and 4D show the iPS cells cultured on rLaminin-5; and FIGS. 3E and 4E show the iPS cells cultured on rLaminin-511. The scale bar in the images indicates 100 μm. In FIGS. 3A to 3E, the images on the left side are full images of the colony, and the images on the right side are magnified images. In FIGS. 4A to 4E, the images on the left side are images of the cells stained with DAPI, and the images on the right side are images of the cells stained with an anti-NANOG antibody. The scale bar in FIGS. 3 and 4 indicates 200 μm.

Row | Molecule | adsorbability with respect to the plate (in words) [1] | amount adsorbed onto the plate relative to the polypeptide including SEQ ID NO: 3 [1] | number of cells on Day 8 of culture relative to the case where RCP-1 was used [2] | form of the iPS cell colony [3] | maintenance of the undifferentiated state (NANOG staining) [3]
1 | B1 | excellent adsorbability | – | – | – | –
2 | B2 | – | about 1/4 | – | – | –
3 | B3 | – | – | about 1/3 | form specific to undifferentiated cells | strongly expressed NANOG in the entirety of the colony
4 | B4 | excellent adsorbability | – | – | form specific to undifferentiated cells | strongly expressed NANOG in the entirety of the colony
5 | B5 | excellent adsorbability | – | – | – | –
